Test results from patent US20210047398A1, “ASPROSIN, A FAST-INDUCED GLUCOGENIC PROTEIN HORMONE” (Baylor College of Medicine, priority 2016, published 2021).

Legend:
human dermal fibroblasts = assay: Adipogenic differentiation of human dermal fibroblasts; type: cell-based
Experimental: Cell Culture—Human dermal fibroblasts isolated from NPS subjects or WT dermal fibroblasts from unaffected control subjects were subjected to adipogenic differentiation using standard protocols. […] Standard transfection methods with expression plasmids were used for in vitro transgenesis.
RNA and Protein Analysis—Standard RNA extraction procedures (RNeasy Mini Kit from Qiagen) were employed. Reverse transcription was carried out using the Superscript III kit (Invitrogen) using the manufacturer's protocol. For gene expression analysis, QPCR was performed using sequence-specific primers and probes from Roche (Universal Probe Library). TBP was used as an internal control for all gene-expression assays. Western blotting was performed using standard methods on plasma or cell culture media using a mouse monoclonal antibody directed against Asprosin, which was purchased from Abnova (Catalog #H00002200-M01). The mouse monoclonal antibody against fibrillin-1 was purchased from Abcam (Catalog #ab3090). […] At that time, media was concentrated using the Amicon Ultra-2 Centrifugal filter unit before proceeding with western blotting.

liver = assay: Liver cAMP level and PKA activity after subcutaneous injection; type: in vivo, mice; conditions: single 30 μg dose, 20 minutes
Text: […] Data are represented as the mean±SEM.
Cell Culture. […] Results were normalized to protein content.

hepatocyte surface = assay: Asprosin-biotin conjugate binding to the hepatocyte surface; set-up: species or system mouse; conditions: 100-fold excess
Experimental: Recombinant asprosin was conjugated with biotin using the Basic Biotinylation Sulfo-NHS Kit from Pierce. […] The cells were washed 3 times with PBS without lysis, followed by addition of streptavidin-HRP. The resulting absorbance was measured colorimetrically and the results were normalized to protein content.

POMC neurons = assay: Whole-cell patch clamp recordings on POMC neurons; type: cell-based, mice
Experimental: Electrophysiology—Whole-cell patch clamp recordings were performed on identified AgRP neurons or POMC neurons in the brain slices containing the arcuate nucleus of the hypothalamus (ARH). In particular, to identify AgRP neurons, the inventors crossed Rosa26-tdTOMATO allele onto the regular AgRP-Cre mice (Tong et al., 2008) to generate AgRP-Cre/Rosa26-tdTOMATO mice, which express TOMATO selectively in AgRP/NPY neurons. In some studies, the inventors crossed NPY-GFP mice (Pinto et al., 2004) with NPS mice to generate NPY-GFP mice with or without the NPS mutation, and GFP-labelled neurons in the arcuate nucleus were recorded. In order to record POMC neurons, the inventors crossed Rosa26-tdTOMATO allele onto the POMC-CreERT2 mice (Berglund et al., 2013) to generate POMC-CreERT2/Rosa26-tdTOMATO mice, which express TOMATO selectively in mature POMC neurons upon tamoxifen induction (0.2 mg/g, i.p. 6 weeks of age). In some studies, the inventors also crossed the AgRP-DTR allele onto POMC-GFP mice, and these mice received DT or saline injections (described above) to generate mice with or without AgRP neurons ablated.
Six to twelve-week old mice were deeply anesthetized with isoflurane and transcardially perfused with a modified ice-cold sucrose-based cutting solution (pH 7.3) containing 10 mM NaCl, 25 mM NaHCO3, 195 mM Sucrose, 5 mM Glucose, 2.5 mM KCl, 1.25 mM NaH2PO4, 2 mM Na-Pyruvate, 0.5 mM CaCl2, and 7 mM MgCl2, bubbled continuously with 95% O2 and 5% CO2 (Ren et al., 2012). The mice were then decapitated, and the entire brain was removed and immediately submerged in the cutting solution. Slices (250 μm) were cut with a Microm HM 650V vibratome (Thermo Scientific). Three brain slices containing the arcuate nucleus were obtained for each animal (Bregma −2.06 mm to −1.46 mm; Interaural 1.74 mm to 2.34 mm), and recordings were made at levels throughout this brain region. The slices were recovered for 1 h at 34° C. and then maintained at room temperature in artificial cerebrospinal fluid (aCSF, pH 7.3) containing 126 mM NaCl, 2.5 mM KCl, 2.4 mM CaCl2, 1.2 mM NaH2PO4, 1.2 mM MgCl2, 11.1 mM glucose, and 21.4 mM NaHCO3) saturated with 95% O2 and 5% CO2 before recording.
Slices were transferred to a recording chamber and allowed to equilibrate for at least 10 min before recording. The slices were superfused at 34° C. in oxygenated aCSF at a flow rate of 1.8-2 ml/min. GFP or TOMATO-labeled neurons in the ARH were visualized using epifluorescence and IR-DIC imaging on an upright microscope (Eclipse FN-1, Nikon) equipped with a moveable stage (MP-285, Sutter Instrument). Patch pipettes with resistances of 3-5 MΩ were filled with intracellular solution (pH 7.3) containing 128 mM K-Gluconate, 10 mM KCl, 10 mM HEPES, 0.1 mM EGTA, 2 mM MgCl2, 0.05 mM Na-GTP and 0.05 mM Mg-ATP. Recordings were made using a MultiClamp 700B amplifier (Axon Instrument), sampled using Digidata 1440A and analyzed offline with pClamp 10.3 software (Axon Instruments). Series resistance was monitored during the recording, and the values were generally <10 MΩ and were not compensated. The liquid junction potential was +12.5 mV, and was corrected after the experiment. Data were excluded if the series resistance increased dramatically during the experiment or without overshoot for action potential. Currents were amplified, filtered at 1 kHz, and digitized at 20 kHz. Current clamp was engaged to test neural firing frequency and resting membrane potential (RM) at the baseline and puff delivered recombinant Asprosin (500 ms at various concentrations indicated in the figures). For the asprosin antibody pre-incubation experiment, asprosin and anti-asprosin mAB or IgG were gently mixed at a 1:100 ratio, and then kept on ice for one hour before recording. After AgRP or POMC neuron response to asprosin alone was confirmed, the mixture of recombinant asprosin and anti-asprosin mAB or IgG was perfused to treat the AgRP or POMC neurons for 4 minutes. […]

[1] = bacterially-generated version (Romere et al., 2016); cited from earlier work

B1: recombinant asprosin: 146 amino acid E. coli expressed fusion protein: 6 amino acid N-terminal His tag and 140 amino acid wild type asprosin (FBN1 2732-2871) (protein)
chain: HHHHHHSTNETDASNIEDQSETEANVSLASWDVEKTAIFAFNISHVSNKVRILELLPALTTLTNHNRYLIESGNEDGFFKINQKEGISYLHFTKKKPVAGTYSLQISSTPLYKKKELNQLEDKYDKDYLSGELGDNLKMKIQVLLH
- NPS associated fat differentiation and inflammogenic defects (human dermal fibroblasts; polypeptide added to the media of mutant cells (10 ug, 7 days), FIG. 15): rescued
- adipogenic differentiation in WT cells (human dermal fibroblasts; recombinant asprosin added to culture media (60 nanomolar), 7 days adipogenic induction, FIG. 4G): promoted adipogenic differentiation
- adipogenic defect in NPS mutant cells (human dermal fibroblasts; recombinant asprosin added to culture media (60 nanomolar), 7 days, FIG. 4H): sufficient to rescue the adipogenic defect
- liver cAMP and protein kinase A activity (liver): sufficient to increase liver cAMP and protein kinase A activity
- competition of asprosin-biotin binding (hepatocyte surface): abolished the effect
- miniature inhibitory post-synaptic current (mIPSC) in POMC neurons (POMC neurons): increased the frequency but not amplitude
- POMC neuron firing frequency with AgRP neuron ablation (POMC neurons; AgRP neuron ablated mice): little effect
- asprosin-mediated hyperpolarization in POMC neurons with AgRP neuron ablation (POMC neurons; AgRP neuron ablated mice): completely prevented
- POMC neuron hyperpolarization with blockade of glutamatergic inputs (POMC neurons; TTX + CNQX + AP5): did not affect
- ability to hyperpolarize POMC neurons, GABAergic input (POMC neurons; TTX + bicuculline): dependent on intact GABAergic input
- proportion of POMC neurons inhibited (POMC neurons; reduced resting membrane potential and firing frequency): ~85%
- plasma half-life [1]: ~20 min
